Experimental data reported in patent US6060588, “Bap-1 proteins” (COR Therapeutics, Inc., dated 2000).

Biological target: GAL4 DNA binding protein only (pGBT9) (Saccharomyces cerevisiae (strain ATCC …, UniProt P04386))
Assay: yeast two-hybrid, mating with control baits

B1: clone 126-2 (partial cDNA of the mouse homologue of Bap-1, fused to the VP16 activation domain) (other)
chain: SGAEDNGDSSHCSNASTHSNQEAGPSNKRTKTSDDSGLDLDNNNAGVAIDPVMDGASEIELVFRPHPTLMEKDDSAQTRYIKTSGNATVDHLSKYLAVRLALEELRSKV
- binding result: no binding
